# In publication PMC3077903 (Molecular microbiology, 2011):
# T1: MinD (E. coli, UniProt P0AEZ3 1-270)
# T1 sequence (looked up): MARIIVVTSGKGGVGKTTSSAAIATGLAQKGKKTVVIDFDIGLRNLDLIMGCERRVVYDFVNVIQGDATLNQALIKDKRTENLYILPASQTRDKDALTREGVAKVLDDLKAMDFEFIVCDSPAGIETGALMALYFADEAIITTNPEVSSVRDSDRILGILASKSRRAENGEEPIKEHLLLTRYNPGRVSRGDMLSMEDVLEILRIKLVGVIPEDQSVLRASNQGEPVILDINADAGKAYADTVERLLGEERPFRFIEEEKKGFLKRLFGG
# T2: MinD-D152A (E. coli, UniProt P0AEZ3 1-270, D152A)
# T2 sequence (looked up): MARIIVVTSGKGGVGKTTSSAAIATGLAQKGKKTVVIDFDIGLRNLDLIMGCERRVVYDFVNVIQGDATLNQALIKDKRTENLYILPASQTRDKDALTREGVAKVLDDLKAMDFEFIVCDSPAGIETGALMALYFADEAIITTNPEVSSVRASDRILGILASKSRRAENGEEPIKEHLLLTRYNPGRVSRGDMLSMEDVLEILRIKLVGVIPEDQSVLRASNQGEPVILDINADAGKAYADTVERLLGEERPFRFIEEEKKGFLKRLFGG
# Tests used:
# SEC = molecular target: the molecule itself; assay: SEC
# MinD = molecular target: T1, MinD; assay: two-hybrid
# MinD-D152A = molecular target: T2, MinD-D152A; assay: two-hybrid
Binder,stoichiometry N (SEC),percent of the MinE-MinD β-galactosidase activity (MinD) [%],β-galactosidase activity (MinD),percent of the MinE-MinD β-galactosidase activity (MinD-D152A) [%],β-galactosidase activity (MinD-D152A)
"MinDΔ10-D40A (domain or fragment, E. coli, UniProt P0AEZ3 1-260, looked up) MARIIVVTSGKGGVGKTTSSAAIATGLAQKGKKTVVIDFAIGLRNLDLIMGCERRVVYDFVNVIQGDATLNQALIKDKRTENLYILPASQTRDKDALTREGVAKVLDDLKAMDFEFIVCDSPAGIETGALMALYFADEAIITTNPEVSSVRDSDRILGILASKSRRAENGEEPIKEHLLLTRYNPGRVSRGDMLSMEDVLEILRIKLVGVIPEDQSVLRASNQGEPVILDINADAGKAYADTVERLLGEERPFRFIEEEK",2,–,–,–,–
"MALLDFFLSRKKNTANIAKERLQIIVAERRR (domain or fragment, E. coli, UniProt P0A734 1-31, looked up) [MinE^1-31]",–,120,398 units of β-galactosidase activity,8,28 units of β-galactosidase activity
"MinE (full length) (natural protein, E. coli, UniProt P0A734 1-88, looked up) MALLDFFLSRKKNTANIAKERLQIIVAERRRSDAEPHYLPQLRKDILEVICKYVQIDPEMVTVQLEQKDGDISILELNVTLPEAEELK",–,100,–,44,145 units of β-galactosidase activity
